Assay results published in article PMC12102759.

B1: ATXN2 peptide 911-926 (Ataxin-2), 16-mer library wild type / PABPC1 PABC (PABPC1 PABC domain, residues 544-623) (parent)
chain 1: KSTLNPNAKEFNPRSF
chain 2: PLTASMLASAPPQEQKQMLGERLFPLIQAMHPTLAGKITGMLLEIDNSELLHMLESPESLRSKVDEAVAVLQAHQAKEAA
B2: PIP5K1C peptide 640-655 (Phosphatidylinositol 4-phosphate 5-kinase type-1 gamma), 16-mer library wild type / TLN1 PTB (TLN1 Phosphotyrosine-binding (PTB) domain, residues 309-401) (parent)
chain 1: FPTDERSWVYSPLHYS
chain 2: GVSFFLVKEKMKGKNKLVPRLLGITKECVMRVDEKTKEVIQEWNLTNIKRWAASPKSFTLDFGDYQDGYYSVQTTEGEQIAQLIAGYIDIILK
B3: RNF115 peptide 67-82 (E3 ubiquitin-protein ligase RNF115), 16-mer library wild type / MDM2 SWIB (MDM2 SWIB/MDM2 domain, residues 17-125) (parent)
chain 1: TTTHFAELWGHLDHTM
chain 2: SQIPASEQETLVRPKPLLLKLLKSVGAQKDTYTMKEVLFYLGQYIMTKRLYDEKQQHIVYCSNDLLGDLFGVPSFSVKEHRKIYTMIYRNLVVVNQQESSDSGTSVSEN
B4: MXI1 peptide 6-21 (Max-interacting protein 1), 16-mer library wild type / SIN3A PAH2 (SIN3A PAH domain, residues 295-383) (parent)
chain 1: MINVQRLLEAAEFLER
chain 2: SLQNNQPVEFNHAINYVNKIKNRFQGQPDIYKAFLEILHTYQKEQRNAKEAGGNYTPALTEQEVYAQVARLFKNQEDLLSEFGQFLPDA

Variants of: B1
Assay: proteomic peptide phage display deep mutational scan (ProP-PD DMS): M13 P8 16-mer library selected against immobilised GST-tagged bait for four days (rounds), NGS of the eluted pools per day and pseudo-replica
Conditions: with PABPC1 PABC (PABPC1 PABC domain, residues 544-623); bait immobilised on MaxiSorp plates (10 µg), library pre-cleared on GST, 2 h binding at 4 °C, five washes; one round per day, days 1-4; value from days 2 and 3; scale: average fractional NGS count over selection days 2 and 3

Screen value, by site and new letter:
chain 1 A8: S 0 | R 0 | I 0 | V 0.000222
chain 1 T3: E 0.00159 | G 0.000528 | M 0.000543 | H 8.48e-05 | Q 0 | S 0 | I 0.00112 | K 0 | F 0.000481 | W 0.000105 | Y 3.57e-05 | V 0.00143
chain 1 K9: T 0.000868 | E 0.00113 | S 0.0022 | D 0.000277 | L 0.00284 | Y 0.000884 | H 0.00168 | F 0.000915 | N 0.00453 | M 0.0042 | P 0.000159 | I 0.0153 | R 0.00121 | Q 0.001 | G 0.000242 | A 0.000101
chain 1 N5: D 0 | S 2.4e-05 | A 0 | Q 0
chain 1 S2: V 0.000881 | D 0.000114 | H 0.00026 | T 0.00018 | M 0.00187 | E 0.000105 | F 0.000554 | I 0.000118 | G 0.000237 | A 0.000338 | P 0.00164 | N 0 | Y 0.00178 | L 5.2e-05
chain 1 P13: V 0.031 | E 0.000246 | F 0.00012 | W 0.000637 | I 0.000517 | L 0.00026 | N 0.000178 | H 0 | Q 0.00338 | T 1.02e-05 | G 0.00243 | A 0.000212 | M 0 | Y 0.000164 | D 1.92e-05
chain 1 R14: M 9.46e-05 | A 0.00158 | Y 0.000722 | H 0.000471 | F 0.000523 | N 0.000117 | Q 0.00156 | V 0.000569 | P 0.00013 | S 0.00103 | T 0.00309 | G 0.0017 | E 0.000187 | W 0.00286
chain 1 E10: D 0 | S 0 | Q 0 | R 0 | V 0.000349 | H 0.000717 | T 0.000321
chain 1 N7: S 0.000455 | M 0.000289 | G 0 | T 1.57e-05 | I 0.00577 | H 0.000328 | E 0.000331 | A 0.000105 | V 0.000181 | Y 5.67e-05 | L 0.000441 | W 0 | F 0.00073 | Q 0.000449 | R 5.23e-05 | D 0.000764
chain 1 P6: A 0 | I 0.000875 | V 0.00101 | L 0.000389 | Y 0 | H 4.64e-05
chain 1 N12: F 0.000678 | P 0 | A 0.00161 | T 0.000331 | E 0.000774 | V 0.00267 | I 0.000365 | W 0.00202 | K 0.000122 | M 0.00106 | Q 0.000365 | L 0 | S 0.000112 | G 0.000277 | H 0.000518 | D 0.00012
chain 1 S15: Y 0.000151 | F 0.000136 | A 0.000153 | W 5.73e-05 | G 0 | I 0.000221 | Q 0 | T 4.17e-05 | N 0.000583 | E 0.000122 | H 0.000677 | V 0.000546 | L 0.00242 | D 0 | P 0.000243
chain 1 F16: L 0.00151 | M 0.000149 | Y 0.000515 | N 0.000241 | H 0.000158 | V 0.000892 | A 0.00041 | D 0.000103 | I 0.000285 | T 0.000108 | W 8.6e-05 | S 0.000134
chain 1 F11: W 0.000158 | V 0 | Y 0.000235
chain 1 L4: M 0.000137 | F 0 | Y 0

Variants of: B2
Assay: as above
Conditions: with TLN1 PTB (TLN1 Phosphotyrosine-binding (PTB) domain, residues 309-401); bait immobilised on MaxiSorp plates (10 µg), library pre-cleared on GST, 2 h binding at 4 °C, five washes; one round per day, days 1-4; value from days 2 and 3; keep out of graded; scale: average fractional NGS count over selection days 2 and 3

Screen value, by site and new letter:
chain 1 Y15: H 0.000526 | D 0.00126 | N 5.2e-05 | M 0.000141 | L 3.79e-05 | S 0.000401 | T 0.000245 | F 0.00152 | I 0.000186 | P 0.000167 | G 0.00057 | E 0.000347 | W 0.000911 | K 0.000895 | Q 0.000147 | V 0.000186 | A 0.000656
chain 1 S11: P 7.58e-05 | A 7.18e-05 | L 0 | M 3.45e-05 | D 0 | I 0
chain 1 S7: L 0.00013 | H 0.00017 | K 0.000214 | N 3.76e-05 | W 0.000136 | M 0.000552 | V 6.47e-05 | P 0 | T 0.000136 | I 0.00143 | Y 0.000136 | R 0.000434
chain 1 W8: G 0 | D 0 | F 7.15e-05
chain 1 S16: L 0.000143 | I 0.00119 | M 0.000225 | A 0.000894 | T 0.000518 | G 0.00097 | Y 0.000212 | H 0.00034 | P 0.000199 | V 0.000729 | E 0.000308 | Q 5.76e-05 | W 3.45e-05 | F 0.000114 | R 0.000132 | N 0.000165
chain 1 Y10: Q 0.000754 | N 0.000216 | D 0.000521 | S 0.00342 | I 0.000546 | F 0.000662 | A 0.000303 | H 6.93e-05 | R 0.000894 | T 0.00117 | V 0.000724 | M 0.00032 | W 8.84e-05 | K 0.00109 | P 0.000394 | L 0.000358
chain 1 V9: Q 0.000257 | L 0.000573 | R 0.000353 | M 0.00044 | S 0.000334 | K 0.000808 | D 0.000489 | F 0.000141 | T 0.000147 | W 0.000872 | E 0.000929 | I 5.76e-05 | N 0.00995 | G 0.000185 | Y 0.000288 | A 0.000113 | H 0.000257
chain 1 T3: L 0.00116 | I 5.15e-05 | A 8.91e-05 | Q 0.000354 | V 4.5e-05 | S 0.00018 | D 5.93e-05 | P 0.000173 | Y 0.000733 | R 0.000107 | G 9.69e-05 | N 8.2e-05 | W 0.000436 | M 2.4e-05 | H 0.000204

Variants of: B3
Assay: as above
Conditions: with MDM2 SWIB (MDM2 SWIB/MDM2 domain, residues 17-125); bait immobilised on MaxiSorp plates (10 µg), library pre-cleared on GST, 2 h binding at 4 °C, five washes; one round per day, days 1-4; value from days 2 and 3; keep out of graded; scale: average fractional NGS count over selection days 2 and 3

Screen value: each site, then its substitutions
chain 1 T15: R 5.55e-05 | K 2.45e-05 | N 4.79e-05 | P 7.64e-05 | E 4.41e-05
chain 1 H14: D 2.82e-05 | K 0.000119
chain 1 W9: P 3.98e-05 | L 0 | A 0 | K 4.89e-05 | Y 0 | Q 0 | T 7.05e-05 | G 0.000116 | D 0 | N 0 | H 0
chain 1 F5: R 0 | K 0 | N 0 | A 0 | D 0
chain 1 L8: P 1.29e-05 | Q 0 | E 4.72e-05 | A 0 | N 0 | S 0
chain 1 M16: H 4.26e-05 | K 0 | G 4.72e-05 | S 0.000115 | R 0.000117
chain 1 T2: N 7.17e-05 | F 4.31e-05 | W 2.98e-05
chain 1 E7: Y 0 | G 0 | S 0 | L 7.08e-05 | W 5.37e-05
chain 1 H4: R 1.9e-05 | W 2.47e-05
chain 1 D13: K 0
chain 1 G10: F 3.49e-05 | R 2.89e-05 | K 0 | V 7.22e-05 | H 5.57e-05 | E 8.15e-05
chain 1 T3: N 6.02e-05
chain 1 A6: P 3.8e-05 | F 0.000296 | T 0.00014 | R 0 | Y 0.000156 | N 0.000134
chain 1 L12: T 0 | K 0 | S 0 | V 1.9e-05 | F 0

Variants of: B4
Assay: as above
Conditions: with SIN3A PAH2 (SIN3A PAH domain, residues 295-383); bait immobilised on MaxiSorp plates (10 µg), library pre-cleared on GST, 2 h binding at 4 °C, five washes; one round per day, days 1-4; value from days 2 and 3; keep out of graded; scale: average fractional NGS count over selection days 2 and 3

Screen value, by site and new letter:
chain 1 A10: Q 0 | I 4.73e-05 | H 2.36e-05 | R 0 | M 1.91e-05
chain 1 I2: G 6.22e-05
chain 1 F13: I 1.91e-05 | P 4.79e-05
chain 1 A11: S 8.92e-05 | V 2.84e-05 | T 9.14e-05 | D 0.000105
